Data on eight variants can be found in publication PMC8384158.

Sequences and labels used below:
B1: TAP–Bag-1S [human] / Calnexin [human (endogenous in MCF-7 and MCF-12A)] (parent)
chain 1: MNRSQEVTRDEESTRSEEVTREEMAAAGLTVTVTHSNEKHDLHVTSQQGSSEPVVQDLAQVVEEVIGVPQSFQKLIFKGKSLKEMETPLSALGIQDGCRVMLIGKKNSPQEEVELKKLKHLEKSVEKIADQLEELNKELTGIQQGFLPKDLQAEALCKLDRRVKATIEQFMKILEEIDTLILPENFKDSRLKRKGLVKKVQAFLAECDTVEQNICQETERLQSTNFALAE
chain 2: HDGHDDDVIDIEDDLDDVIEEVEDSKPDTTAPPSSPKVTYKAPVPTGEVYFADSFDRGTLSGWILSKAKKDDTDDEIAKYDGKWEVEEMKESKLPGDKGLVLMSRAKHHAISAKLNKPFLFDTKPLIVQYEVNFQNGIECGGAYVKLLSKTPELNLDQFHDKTPYTIMFGPDKCGEDYKLHFIFRHKNPKTGIYEEKHAKRPDADLKTYFTDKKTHLYTLILNPDNSFEILVDQSVVNSGNLLNDMTPPVNPSREIEDPEDRKPEDWDERPKIPDPEAVKPDDWDEDAPAKIPDEEATKPEGWLDDEPEYVPDPDAEKPEDWDEDMDGEWEAPQIANPRCESAPGCGVWQRPVIDNPNYKGKWKPPMIDNPSYQGIWKPRKIPNPDFFEDLEPFRMTPFSAIGLELWSMTSDIFFDNFIICADRRIVDDWANDGWGLKKAADGAAEPGVVGQMIEAAEERPWLWVVYILTVALPVFLVILFCCSGKKQTSGMEYKKTDAPQPDVKEEEEEKEEEKDKGDEEEEGEEKLEEKQKSDAEEDGGTVSQEEEDRKPKAEEDEILNRSPRNRKPRRE
B2: TAP–Bag-1S [human] / PDIA3 [human (endogenous in MCF-7 and MCF-12A)] (parent)
chain 1: B1 chain 1
chain 2: SDVLELTDDNFESRISDTGSAGLMLVEFFAPWCGHCKRLAPEYEAAATRLKGIVPLAKVDCTANTNTCNKYGVSGYPTLKIFRDGEEAGAYDGPRTADGIVSHLKKQAGPASVPLRTEEEFKKFISDKDASIVGFFDDSFSEAHSEFLKAASNLRDNYRFAHTNVESLVNEYDDNGEGIILFRPSHLTNKFEDKTVAYTEQKMTSGKIKKFIQENIFGICPHMTEDNKDLIQGKDLLIAYYDVDYEKNAKGSNYWRNRVMMVAKKFLDAGHKLNFAVASRKTFSHELSDFGLESTAGEIPVVAIRTAKGEKFVMQEEFSRDGKALERFLQDYFDGNLKRYLKSEPIPESNDGPVKVVVAENFDEIVNNENKDVLIEFYAPWCGHCKNLEPKYKELGEKLSKDPNIVIAKMDATANDVPSPYEVRGFPTIYFSPANKKLNPKKYEGGRELSDFISYLQREATNPPVIQEEKPKKKKKAQEDL

In one experiment the parent is B1. In words: TAP pull-down interactome analysis (LC-MS/MS). The note with it: with Calnexin [human (endogenous in MCF-7 and MCF-12A)]; MCF-7 cells; read off a plot.
As to chain 1 MNRSQEVTRDEESTRSEEVTREEMAAAGLTVTVTHSNEKHDLHVTSQQGSSEPVVQDLAQVVEEVIGVPQSFQKLIFKGKSLKEMETPLSALGIQDGCRVMLKGKKNSPQEEVELKKLKHLEKSVEKIADQLEELNKELTGIQQGFLPKDLQAEALCKLDRRVKATIEQFMKILEEIDTLILPENFKDSRLKRKGLVKKVQAFLAECDTVEQNICQETERLQSTNFALAE [chain 1 I103K], the screen value was -1.1 log2. As for chain 1 MNRSQEVTRDEESTRSEEVTREEMAAAGLTVTVTHSNEKHDLHVTSQQGSSEPVVQDLAQVVEEVIGVPQSFQKLIFKGKSLKEMETPLSALGIQDGCRVMLIGKKNSPQEEVELKKLKHLEKSVEKIADQLEELNKELTGIQQGFLPKDLQAEALCKLDRRVKATIEQFMKILEEIDTLILPENFKDSRLKDKGLVKKVQAFLAECDTVEQNICQETERLQSTNFALAE [chain 1 R193D], the screen value is -0.55 log2. On the same count and under the same terms, the value for chain 1 MNRSQEVTRDEESTRSEEVTREEMAAAGLTVTVTHSNEKHDLHVTSQQGSSEPVVQDLAQVVEEVIGVPQSFQKLIFKGKSLKEMETPLSALGIQDGCRVMLIGKKNSPQEEVELKKLKHLEKSVEKIADQLEELNKELTGIQQGFLPKDLQAEALCKLDDRVKATIEQFMKILEEIDTLILPENFKDSRLKRKGLVKKVQAFLAECDTVEQNICQETERLQSTNFALAE [chain 1 R161D] was -1.6 log2; that for chain 1 MNRSQEVTRDEESTRSEEVTREEMAAAGLTVTVTHSNEKHDLHVTSQQGSSEPVVQDLAQVVEEVIGVPQSFQKLIFKGKSLKEMETPLSALGIQDGCRVMLIGKKNSPQEEVELKKLKHLEKSVEKIADQLEELNKELTGIQQGFLPKDLQAEALCKLDREVKATIEQFMKILEEIDTLILPENFKDSRLKRKGLVKKVQAFLAECDTVEQNICQETERLQSTNFALAE [chain 1 R162E] was -1.1 log2.

Variants of B2 are the subject of the next experiment. In words: TAP pull-down interactome analysis (LC-MS/MS). The conditions noted are these: with PDIA3 [human (endogenous in MCF-7 and MCF-12A)]; MCF-7 cells; read off a plot.
As for chain 1 MNRSQEVTRDEESTRSEEVTREEMAAAGLTVTVTHSNEKHDLHVTSQQGSSEPVVQDLAQVVEEVIGVPQSFQKLIFKGKSLKEMETPLSALGIQDGCRVMLIGKKNSPQEEVELKKLKHLEKSVEKIADQLEELNKELTGIQQGFLPKDLQAEALCKLDDRVKATIEQFMKILEEIDTLILPENFKDSRLKRKGLVKKVQAFLAECDTVEQNICQETERLQSTNFALAE [chain 1 R161D], the screen value is -1.5 log2. Same read-out and setting: the value for chain 1 MNRSQEVTRDEESTRSEEVTREEMAAAGLTVTVTHSNEKHDLHVTSQQGSSEPVVQDLAQVVEEVIGVPQSFQKLIFKGKSLKEMETPLSALGIQDGCRVMLIGKKNSPQEEVELKKLKHLEKSVEKIADQLEELNKELTGIQQGFLPKDLQAEALCKLDREVKATIEQFMKILEEIDTLILPENFKDSRLKRKGLVKKVQAFLAECDTVEQNICQETERLQSTNFALAE [chain 1 R162E] was -0.62 log2.

Take chain 1 MNRSQEVTRDEESTRSEEVTREEMAAAGLTVTVTHSNEKHDLHVTSQQGSSEPVVQDLAQVVEEVIGVPQSFQKLIFKGKSLKEMETPLSALGIQDGCRVMLKGKKNSPQEEVELKKLKHLEKSVEKIADQLEELNKELTGIQQGFLPKDLQAEALCKLDRRVKATIEQFMKILEEIDTLILPENFKDSRLKRKGLVKKVQAFLAECDTVEQNICQETERLQSTNFALAE [chain 1 I103K]: the screen value is -0.07 log2. The same measure, in the same setting: the result for chain 1 MNRSQEVTRDEESTRSEEVTREEMAAAGLTVTVTHSNEKHDLHVTSQQGSSEPVVQDLAQVVEEVIGVPQSFQKLIFKGKSLKEMETPLSALGIQDGCRVMLIGKKNSPQEEVELKKLKHLEKSVEKIADQLEELNKELTGIQQGFLPKDLQAEALCKLDRRVKATIEQFMKILEEIDTLILPENFKDSRLKDKGLVKKVQAFLAECDTVEQNICQETERLQSTNFALAE [chain 1 R193D] reads -0.1 log2.
